Data taken from the supplement of paper PMC10126150.
± gives the standard deviation of the averaged measurements.

System: ATP
Assay: switch fluorescence ratio, 500 uM ATP over buffer (Cy3 cluster intensity, sum of 5 cycles each) (fold (ratio)); higher = stronger signal-on switching upon ATP binding; sequences stand for … in TCGTCGGCAGCGTCAGATGTGTATAAGAGACAGTTTTTTTTTTTTTTTTTTTTTTTTT…TC
Details: aptamer strand: ATP DNA aptamer (quencher-CACCTGGGGGAGTATTGCGGAGGAAGG + anchor), 100 nM annealed; ATP concentration: 500 uM
Outline: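 Switching-strand clusters labelled with Cy3 on a modified Illumina MiSeq flow-cell were annealed to 100 nM quencher-labelled ATP aptamer, imaged in selection buffer, and re-imaged after 15 min with 500 uM ATP at 22 °C. This was done over five cycles with NaOH stripping and re-annealing in between. The fluorescence ratio is summed target-cycle over summed buffer-cycle Cy3 intensity per cluster, averaged per switch-domain sequence, excluding clusters outside 100-1000 RFU.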
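Note: ATP exposure 15 min at 22 °C before imaging.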

Sequence | switch fluorescence ratio
AAGGGGCGCC | 0.999 ± 0.052
AAGGGGCGGG | 0.952 ± 0.011
AAGGGGGAGC | 0.988 ± 0.042
AAGGGGGCAG | 0.994 ± 0.025
AAGGGGGCCG | 1.06 ± 0.092
AAGGGGGCGG | 1 ± 0.015
AAGGGGGGAC | 1.04 ± 0.07
AAGGGGGGCG | 1.02 ± 0.037
AAGGGGGGGT | 0.999 ± 0.03
AAGGGGGTAA | 0.977 ± 0.012
AAGGGGTCTT | 0.981 ± 0.027
AAGGGGTTCA | 0.991 ± 0.03
AAGGGTAGAT | 1.01 ± 0.038
AAGGGTAGGA | 1 ± 0.013
AAGGGTAGGC | 1.03 ± 0.042
AAGGGTAGTT | 0.997 ± 0.028
AAGGGTATGT | 0.981 ± 0.029
AAGGGTCCAC | 0.9907 ± 0.0079
AAGGGTGAC | 1.01 ± 0.032
AAGGGTGCGA | 1.02 ± 0.04
AAGGGTGCTA | 0.9787 ± 0.0016
AAGGGTGTCA | 1.022 ± 0.0032
AAGGGTTAGA | 0.9864 ± 0.0021
AAGGGTTTGC | 0.974 ± 0.022
AAGGGTTTTT | 0.994 ± 0.025

Sequence | switch fluorescence ratio
AAGGTACTAC | 1.03 ± 0.065
AAGGTAGAGC | 1.03 ± 0.034
AAGGTAGCAC | 1.03 ± 0.011
AAGGTAGCGC | 0.974 ± 0.059
AAGGTAGGGT | 1.025 ± 0.0034
AAGGTAGTGT | 0.989 ± 0.028
AAGGTATGGG | 1.06 ± 0.073
AAGGTCATAA | 1.01 ± 0.053
AAGGTCCGCG | 1.08 ± 0.027
AAGGTCGCGT | 0.9906 ± 0.0039
AAGGTCTTTA | 1 ± 0.035
AAGGTGGGGA | 1.02 ± 0.034
AAGGTGGTTG | 0.969 ± 0.016
AAGGTTCGGG | 0.994 ± 0.018
AAGGTTGTTG | 1 ± 0.012
AAGGTTTTTT | 1.01 ± 0.02
AAGTACCTAT | 1.27 ± 0.058
AAGTACTTGG | 1.17 ± 0.017
AAGTAGATCC | 1.04 ± 0.044
AAGTAGATGG | 0.991 ± 0.029
AAGTAGCCGT | 1.19 ± 0.19
AAGTAGTGGG | 0.96 ± 0.028
AAGTATATGG | 1.03 ± 0.029
AAGTATATGT | 0.998 ± 0.027
AAGTATATTG | 0.991 ± 0.025

Sequence | switch fluorescence ratio
AAGTATCGAC | 1.05 ± 0.023
AAGTATTATT | 0.983 ± 0.03
AAGTATTTCG | 0.9995 ± 0.0062
AAGTCAGCTG | 0.9826 ± 0.004
AAGTCGAGTC | 0.996 ± 0.018
AAGTCGCTGT | 1.02 ± 0.016
AAGTCGGGGG | 1 ± 0.029
AAGTCGGTGG | 0.987 ± 0.07
AAGTCGGTGT | 0.988 ± 0.027
AAGTCTAAGG | 0.964 ± 0.05
AAGTCTGCCA | 1.47 ± 0.66
AAGTGAGGCA | 0.963 ± 0.06
AAGTGAGGGT | 0.996 ± 0.036
AAGTGATGGG | 0.988 ± 0.045
AAGTGATTTG | 1.01 ± 0.018
AAGTGCGGGA | 0.9967 ± 0.0086
AAGTGCTTTT | 1.01 ± 0.052
AAGTGGCCGT | 1.01 ± 0.041
AAGTGGGTTC | 0.9824 ± 0.0052
AAGTGGTCAC | 1.01 ± 0.029
AAGTGGTGCA | 0.974 ± 0.013
AAGTGGTGCT | 1.024 ± 0.0011
AAGTGTAGAG | 1.027 ± 0.0092
AAGTGTATGC | 1.01 ± 0.038
AAGTGTATGG | 0.997 ± 0.0098

Sequence | switch fluorescence ratio
AAGTGTTCAG | 0.982 ± 0.027
AAGTTAATTT | 0.998 ± 0.021
AAGTTACTAC | 1.06 ± 0.027
AAGTTAGGGA | 0.919 ± 0.083
AAGTTATGCT | 1 ± 0.014
AAGTTCACAA | 1.01 ± 0.033
AAGTTCACCA | 1.02 ± 0.018
AAGTTCTATA | 1.01 ± 0.043
AAGTTGATAA | 1 ± 0.035
AAGTTGATTC | 0.979 ± 0.016
AAGTTGCTTG | 0.989 ± 0.02
AAGTTGGAGT | 1.02 ± 0.027
AAGTTGGATA | 0.993 ± 0.019
AAGTTGGGCT | 1.01 ± 0.025
AAGTTGGGGG | 1.01 ± 0.025
AAGTTGTGGG | 0.967 ± 0.043
AAGTTGTGTT | 0.996 ± 0.033
AAGTTTACGC | 0.983 ± 0.025
AAGTTTATAG | 1.03 ± 0.0066
AAGTTTGAGT | 0.982 ± 0.022
AAGTTTGATA | 0.981 ± 0.058
AAGTTTGTTA | 0.995 ± 0.042
AAGTTTTATG | 1.03 ± 0.059
AAGTTTTGCA | 1.007 ± 0.0091
AATAAACAGC | 1.006 ± 0.0078

Sequence | switch fluorescence ratio
AATAAAGGTT | 1.1 ± 0.18
AATAACTAGA | 0.9804 ± 0.0037
AATAACTAGG | 1 ± 0.025
AATAAGAGAG | 1.001 ± 0.0078
AATAAGGATA | 1.01 ± 0.026
AATAAGGTA | 0.995 ± 0.022
AATAAGGTTG | 0.982 ± 0.04
AATAAGTGGT | 0.989 ± 0.023
AATAAGTTGT | 0.999 ± 0.035
AATAATAGCC | 1.01 ± 0.042
AATAATCGCC | 1 ± 0.05
AATAATCGGT | 0.975 ± 0.035
AATAATGCGG | 0.9969 ± 0.0071
AATAATTTGG | 0.978 ± 0.012
AATACCATTT | 1.01 ± 0.035
AATACGGGAC | 1.303 ± 0.0093
AATACTGAGC | 1.04 ± 0.053
AATACTTGGG | 0.966 ± 0.01
AATAGAGGTC | 0.988 ± 0.013
AATAGATTCG | 0.982 ± 0.017
AATAGCTCGG | 0.9867 ± 0.0047
AATAGGATCG | 1.01 ± 0.045
AATAGGCTGG | 1.03 ± 0.013
AATAGGGACC | 1.07 ± 0.089
AATAGGGAGC | 0.997 ± 0.041

Sequence | switch fluorescence ratio
AATAGGGATT | 0.984 ± 0.019
AATAGGTGTT | 1.07 ± 0.015
AATAGGTTTT | 1.02 ± 0.011
AATAGTTGGA | 0.9846 ± 0.0064
AATAGTTGGG | 1.03 ± 0.015
AATATAAAGC | 1.012 ± 0.0028
AATATATGCA | 0.991 ± 0.034
AATATCAGGA | 1.026 ± 0.0083
AATATGATTC | 0.992 ± 0.025
AATATGCTTT | 1.006 ± 0.0048
AATATGGAGC | 1.08 ± 0.14
AATATGGGT | 1 ± 0.034
AATATGGTTT | 0.966 ± 0.02
AATATGTGGG | 0.975 ± 0.024
AATATGTTCT | 1.02 ± 0.014
AATATTACAT | 1.03 ± 0.034
AATATTACTA | 1.007 ± 0.0041
AATATTCGTT | 0.997 ± 0.039
AATATTGAAG | 1 ± 0.018
AATATTGGTA | 1.01 ± 0.018
AATCAAAAAT | 0.949 ± 0.043
AATCAAATTA | 0.985 ± 0.025
AATCAATTAA | 1.001 ± 0.0016
AATCAATTTT | 1.007 ± 0.0054
AATCAGTCTG | 0.992 ± 0.013

Sequence | switch fluorescence ratio
AATCATAGGG | 1.011 ± 0.0087
AATCATATTA | 1.01 ± 0.049
AATCATGGGG | 0.993 ± 0.041
AATCCATGCG | 1.004 ± 0.0076
AATCCATGGC | 0.98678 ± 6.8e-05
AATCCCGGGG | 1.19 ± 0.21
AATCCGTTTT | 1.04 ± 0.044
AATCCTTAAT | 1.007 ± 0.0051
AATCCTTTTT | 1.004 ± 0.0084
AATCGCACCA | 1.11 ± 0.025
AATCGCTAGC | 1.02 ± 0.011
AATCGCTCTT | 1.007 ± 0.0062
AATCGCTTGG | 0.9965 ± 0.006
AATCGCTTTG | 1.014 ± 0.0029
AATCGGCGTC | 1.08 ± 0.15
AATCGGCTCA | 0.98074 ± 0.00017
AATCGGGCCA | 0.987 ± 0.018
AATCGGGGAT | 1 ± 0.012
AATCGGGGGG | 0.974 ± 0.013
AATCGGGGTC | 1.01 ± 0.015
AATCGGGTAG | 1 ± 0.014
AATCGGGTCA | 0.985 ± 0.021
AATCGGTACT | 1.01 ± 0.038
AATCGGTAGG | 1.01 ± 0.027
AATCGTACGT | 0.959 ± 0.04

Sequence | switch fluorescence ratio
AATCGTAGTG | 0.9895 ± 0.0071
AATCGTATTC | 0.972 ± 0.011
AATCGTGTAG | 1.04 ± 0.025
AATCGTTTTT | 1.02 ± 0.12
AATCTCATAA | 0.986 ± 0.034
AATCTCTGGG | 0.992 ± 0.0015
AATCTGGCTG | 0.991 ± 0.023
AATCTGGGGT | 1 ± 0.028
AATCTTTGGA | 1 ± 0.013
AATGAAAAAT | 0.989 ± 0.067
AATGAAAATG | 0.9804 ± 0.0089
AATGAAAGCG | 1.01 ± 0.015
AATGAGCGTT | 1.14 ± 0.16
AATGAGTACG | 1.02 ± 0.059
AATGATATCG | 1.03 ± 0.013
AATGATGGGT | 0.985 ± 0.019
AATGCACAGA | 1.05 ± 0.045
AATGCCTCTT | 1.013 ± 0.0028
AATGCCTGCG | 1.02 ± 0.034
AATGCGCCGT | 1.01 ± 0.022
AATGCGTGCG | 1.04 ± 0.023
AATGCTAAGA | 1.01 ± 0.044
AATGCTGCGC | 1.03 ± 0.056
AATGCTTCTC | 1.03
AATGGAGGGG | 0.978 ± 0.019
